{"source": "paper PMC7144918", "binders": {"B1": {"name": "BZ91/BZ107 25 bp duplex (dsDNA)", "DNA 1": "GATGCCTCCAAGGTCGACGATGCAG", "DNA 2": "CTGCATCGTCGACCTTGGAGGCATC"}, "B2": {"name": "BZ57/BZ109 25 bp Cy3 duplex (dsDNA)", "DNA 1": "GATGCCTCCAAGGTCGACGATGCAG", "DNA 2": "CTGCATCGTCGACCTTGGAGGCATC", "modifications": "internal Cy3 in backbone after nt 4 of each strand"}}, "molecular_target": "Ku70/80 heterodimer (Ku) (UniProt P12956;P13010 1-609;1-732)", "sequence (P12956 whole entry, chain 1 of 2)": "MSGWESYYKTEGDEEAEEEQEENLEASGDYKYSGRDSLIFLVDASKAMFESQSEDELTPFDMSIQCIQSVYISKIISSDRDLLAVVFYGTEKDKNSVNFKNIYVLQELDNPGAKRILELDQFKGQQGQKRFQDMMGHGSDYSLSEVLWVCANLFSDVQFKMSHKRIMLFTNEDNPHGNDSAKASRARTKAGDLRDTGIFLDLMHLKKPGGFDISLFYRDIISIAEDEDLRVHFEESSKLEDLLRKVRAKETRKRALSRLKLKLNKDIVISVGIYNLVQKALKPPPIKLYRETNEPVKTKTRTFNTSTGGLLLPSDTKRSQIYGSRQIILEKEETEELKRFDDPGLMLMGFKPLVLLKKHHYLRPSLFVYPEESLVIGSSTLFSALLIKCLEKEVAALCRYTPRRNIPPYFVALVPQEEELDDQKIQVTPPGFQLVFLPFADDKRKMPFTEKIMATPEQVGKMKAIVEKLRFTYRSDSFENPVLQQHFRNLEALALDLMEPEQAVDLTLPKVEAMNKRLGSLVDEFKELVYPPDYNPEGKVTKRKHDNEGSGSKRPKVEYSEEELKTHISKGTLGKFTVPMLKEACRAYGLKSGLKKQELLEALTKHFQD", "sequence (P13010 whole entry, chain 2 of 2)": "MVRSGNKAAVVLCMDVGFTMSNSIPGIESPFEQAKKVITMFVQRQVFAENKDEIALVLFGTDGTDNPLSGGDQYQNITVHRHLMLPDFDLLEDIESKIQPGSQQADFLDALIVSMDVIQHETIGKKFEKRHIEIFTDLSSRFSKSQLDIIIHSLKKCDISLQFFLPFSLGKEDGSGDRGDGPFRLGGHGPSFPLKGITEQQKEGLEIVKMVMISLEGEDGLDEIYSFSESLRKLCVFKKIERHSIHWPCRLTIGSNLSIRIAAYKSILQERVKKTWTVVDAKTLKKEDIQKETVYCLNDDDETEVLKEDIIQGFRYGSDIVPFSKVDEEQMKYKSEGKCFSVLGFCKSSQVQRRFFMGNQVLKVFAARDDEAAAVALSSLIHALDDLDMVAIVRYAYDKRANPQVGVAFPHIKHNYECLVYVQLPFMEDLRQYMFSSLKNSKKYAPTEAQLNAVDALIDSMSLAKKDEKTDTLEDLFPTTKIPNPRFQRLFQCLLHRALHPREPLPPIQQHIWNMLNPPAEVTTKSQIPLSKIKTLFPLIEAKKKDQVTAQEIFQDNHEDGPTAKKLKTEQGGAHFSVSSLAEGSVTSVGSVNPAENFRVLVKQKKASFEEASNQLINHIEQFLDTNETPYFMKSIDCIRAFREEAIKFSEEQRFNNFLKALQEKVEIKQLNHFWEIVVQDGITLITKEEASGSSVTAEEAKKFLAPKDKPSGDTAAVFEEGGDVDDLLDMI", "assay": "EMSA", "data": [{"binder": "B1", "values": [{"measurement": "Kd", "result": 86, "unit": "pM"}]}, {"binder": "B2", "values": [{"measurement": "Kd", "result": 110, "unit": "pM"}]}]}
